Source: patent publication US20100260748A1 (published 2010)
Positions count from the first letter of the chain named. Names may count otherwise.

T1: human FcRH5 expressed on stably transfected cells (BJAB.huFcRH5, OPM2.huFcRH5) (human, UniProt Q96RD9 16-977)
T1 construct: also called OPM2-FcRH5; BJAB-FcRH5
T1 chain: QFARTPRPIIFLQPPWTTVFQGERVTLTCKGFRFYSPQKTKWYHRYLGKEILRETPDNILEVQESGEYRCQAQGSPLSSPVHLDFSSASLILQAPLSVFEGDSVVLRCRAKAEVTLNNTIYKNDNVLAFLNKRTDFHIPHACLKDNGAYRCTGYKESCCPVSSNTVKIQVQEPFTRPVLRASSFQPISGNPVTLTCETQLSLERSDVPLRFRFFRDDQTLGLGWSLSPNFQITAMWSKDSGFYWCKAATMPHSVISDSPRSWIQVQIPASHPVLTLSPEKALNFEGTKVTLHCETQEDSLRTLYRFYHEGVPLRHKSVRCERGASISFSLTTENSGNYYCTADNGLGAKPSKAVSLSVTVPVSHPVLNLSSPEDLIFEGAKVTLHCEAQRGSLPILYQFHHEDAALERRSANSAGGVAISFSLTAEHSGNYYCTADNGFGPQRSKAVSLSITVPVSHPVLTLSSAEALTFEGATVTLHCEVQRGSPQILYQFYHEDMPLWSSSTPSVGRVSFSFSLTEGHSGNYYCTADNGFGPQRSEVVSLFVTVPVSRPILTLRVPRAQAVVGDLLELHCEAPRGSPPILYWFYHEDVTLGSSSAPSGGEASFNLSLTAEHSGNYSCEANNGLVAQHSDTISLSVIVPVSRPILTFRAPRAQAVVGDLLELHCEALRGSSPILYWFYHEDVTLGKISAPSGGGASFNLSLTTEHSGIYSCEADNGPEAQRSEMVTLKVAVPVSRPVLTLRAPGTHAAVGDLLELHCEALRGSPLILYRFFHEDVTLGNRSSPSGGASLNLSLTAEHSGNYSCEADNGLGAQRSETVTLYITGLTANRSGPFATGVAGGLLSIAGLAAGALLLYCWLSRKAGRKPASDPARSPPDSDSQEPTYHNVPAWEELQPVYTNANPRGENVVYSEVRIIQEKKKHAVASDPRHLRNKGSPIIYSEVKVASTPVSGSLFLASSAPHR

T2: cynomolgus FcRH5 expressed on stably transfected SVT2 cells (cynomolgus monkey)
T2 construct: also called cyno FcRH5; cynoFcRH5
T2 chain: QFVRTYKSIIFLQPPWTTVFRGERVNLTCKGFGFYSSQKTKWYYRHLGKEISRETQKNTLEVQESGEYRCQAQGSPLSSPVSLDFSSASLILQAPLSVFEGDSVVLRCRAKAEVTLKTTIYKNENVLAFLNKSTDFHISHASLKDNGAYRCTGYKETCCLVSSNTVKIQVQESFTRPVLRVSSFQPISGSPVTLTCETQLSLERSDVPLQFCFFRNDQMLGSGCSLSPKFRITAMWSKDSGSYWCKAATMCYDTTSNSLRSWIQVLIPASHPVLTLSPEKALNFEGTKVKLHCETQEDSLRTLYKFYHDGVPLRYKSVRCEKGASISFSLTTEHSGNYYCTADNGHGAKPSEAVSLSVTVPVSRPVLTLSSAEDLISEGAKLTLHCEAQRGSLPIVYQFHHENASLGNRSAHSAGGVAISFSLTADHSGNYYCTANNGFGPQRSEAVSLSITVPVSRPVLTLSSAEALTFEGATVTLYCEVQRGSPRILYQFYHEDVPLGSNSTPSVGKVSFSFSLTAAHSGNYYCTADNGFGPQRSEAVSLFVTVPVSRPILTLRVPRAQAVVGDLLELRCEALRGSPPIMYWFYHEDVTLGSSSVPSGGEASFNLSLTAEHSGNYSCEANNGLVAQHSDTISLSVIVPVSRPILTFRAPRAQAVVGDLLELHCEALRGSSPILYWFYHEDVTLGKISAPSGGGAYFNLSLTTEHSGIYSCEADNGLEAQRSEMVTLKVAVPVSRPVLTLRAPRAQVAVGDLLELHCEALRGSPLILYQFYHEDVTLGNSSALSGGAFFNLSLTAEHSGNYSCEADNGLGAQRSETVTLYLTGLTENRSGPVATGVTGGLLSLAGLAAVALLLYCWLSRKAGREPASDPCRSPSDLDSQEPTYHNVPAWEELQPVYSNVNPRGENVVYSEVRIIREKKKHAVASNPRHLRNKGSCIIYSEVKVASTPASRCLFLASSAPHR

B1: murine anti-FcRH5 (10A8) monoclonal antibody (antibody, V domains shown)
VL: DIVMTQSHKFMSTSVRDRVSITCKASQDVSTAVAWYQQKPGQSPKLLIYSASYRYTGVPDRFTGSGSGTDFTFTISSVQAEDLAVYYCQQHFSSPRTFGGGTKVEIKR
VH: EVQLVESGGGLVKPGGSLKISCAASGFTFSSYAVSWVRQTPEKRLEWVATISSGGSLTFYLDSVRGRFTISRDNAKNTLYLQMSSLRSEDTAMYYCARPIPDYYALDYWGQGTSVTVSS
notes: Murine hybridoma IgG; also called 10A8.1.1; mu10A8
B2: Thio-ch10A8-HC(A118C)-MC-vc-PAB-MMAE (antibody, human IgG1, kappa, name in EU numbering)
light: DIVMTQSHKFMSTSVRDRVSITCKASQDVSTAVAWYQQKPGQSPKLLIYSASYRYTGVPDRFTGSGSGTDFTFTISSVQAEDLAVYYCQQHFSSPRTFGGGTKVEIKRTVAAPSVFIFPPSDEQLKSGTASVVCLLNNFYPREAKVQWKVDNALQSGNSQESVTEQDSKDSTYSLSSTLTLSKADYEKHKVYACEVTHQGLSSPVTKSFNRGEC
heavy: not shown
modifications: MC-vc-PAB-MMAE on the engineered Cys 118 (EU numbering)
notes: Antibody-drug conjugate of thio-ch10A8.HC
B3: cysteine engineered chimeric anti-FcRH5 10A8, heavy chain A118C (thio-ch10A8.HC) (antibody, human IgG1, kappa, name in EU numbering)
light: B2 light
heavy: not shown
notes: also called Thio-ch10A8-HC(A118C)
B4: ch10A8-SPDB-DM4 (antibody, human IgG1, kappa)
light: B2 light
heavy: not shown
modifications: DM4 linked through the e-amino group of lysine using the SPDB linker (sites not given)
B5: chimeric anti-human FcRH5 antibody 10A8 (ch10A8) (antibody, human IgG1, kappa)
light: B2 light
heavy: not shown
notes: Murine 10A8 variable domains with human kappa and human IgG1 constant domains; also called chMAFcRH5 (10A8); chFcRH5 (10A8)
B6: humanized anti-FcRH5 antibody 10A8 version 1 (hu10A8 v1) (antibody, human IgG1, V domains shown)
VL: DIQMTQSPSSLSASVGDRVTITCKASQDVSTAVAWYQQKPGKAPKLLIYSASYRYTGVPSRFSGSGSGTDFTLTISSLQPEDFATYYCQQHFSSPRTFGQGTKVEIKR
VH: EVQLVESGGGLVQPGGSLRLSCAASGFTFSSYAVSWVRQAPGKGLEWVATISSGGSLTFYLDSVRGRFTISRDNSKNTLYLQMNSLRAEDTAVYYCARPIPDYYALDYWGQGTLVTVSS
notes: Full-length human IgG1 with human kappa constant domain; also called 10A8-graft; hu10A8 graft
B7: thio-hu10A8-HC(A118C)-MC-vc-PAB-MMAE (antibody, human IgG1, kappa)
heavy: not shown
light: DIQMTQSPSSLSASVGDRVTITCKASQDVSTAVAWYQQKPGKAPKLLIYSASYRYTGVPSRFSGSGSGTDFTLTISSLQPEDFATYYCQQHFSSPRTFGQGTKVEIKRTVAAPSVFIFPPSDEQLKSGTASVVCLLNNFYPREAKVQWKVDNALQSGNSQESVTEQDSKDSTYSLSSTLTLSKADYEKHKVYACEVTHQGLSSPVTKSFNRGEC
modifications: MC-vc-PAB-MMAE on the engineered Cys 118 (EU numbering)
notes: Antibody-drug conjugate (thioMab drug conjugate); also called thio-HC(A118C)-hu-anti-FcRH5 (10A8)-MC-vc-PAB-MMAE; Thio-HC(A118C)-hu-anti-FcRH5 (10A8)-vc-E
B8: thio-hu10A8 v1-HC(A118C) (antibody, human IgG1, kappa)
heavy: not shown
light: B7 light
notes: Cysteine engineered humanized IgG1 (thioMab), unconjugated; also called thio.hu10A8.HC; Thio-hu10A8-HC(A118C)
B9: thio-hu10A8-LC(V205C)-MC-vc-PAB-MMAE (antibody, human IgG1, kappa)
heavy: not shown
light: B7 light with V205C
modifications: MC-vc-PAB-MMAE on the engineered Cys 205 (Kabat numbering)
notes: Antibody-drug conjugate (thioMab drug conjugate); also called Thio-LC(L205C)-hu-anti-FcRH5 (10A8)-vc-E
B10: thio-hu10A8 v1-LC(V205C) (antibody, human IgG1, kappa)
heavy: not shown
light: B7 light with V205C
notes: Cysteine engineered humanized IgG1 (thioMab), unconjugated; also called thio.hu10A8.LC; thio-hu10A8-LC(V205C)

Legend:
[1] = target: T1, human FcRH5 expressed on stably …; test: Scatchard analysis, 0.5 nM 125I-labelled antibody competed with the same unlabelled antibody (50 to 0.02 nM), BJAB.huFcRH5 cells, 4 h at 4 C
[2] = target: T2, cynomolgus FcRH5 expressed on stably …; test: Scatchard analysis, 0.5 nM 125I-labelled antibody competed with the same unlabelled antibody (50 to 0.02 nM), SVT2.cyFcRH5 cells, 4 h at 4 C
Experimental: (§1) To further determine binding of the FcRH5 murine antibodies and IgG clones, binding of iodinated IgG variants to OPM2 cells expressing human FcRH5 and SVT2 cells expressing cynomologous FcRH5, Scatchard analysis was performed.
(§2) For Scatchard analysis, 0.5 nM I¹²⁵ labeled murine or IgG clone anti-FcRH5 was competed against unlabeled murine or IgG clone anti-FcRH5, respectively, ranging from 50 to 0.02 nM (12 step 1:2 serial dilution) in the presence of a transfected OPM2 line stably expressing human-FcRH5 and a transfected SVT2 line stably expressing cynomologous-FcRH5. After a four hour incubation at 4° C., cells were washed and cell pellet counts were read by a gamma counter (1470 WIZARD Automatic Gamma Counter; Perkin Elmer, Walthem, Mass.). All points were done in triplicate and counted for 10 minutes. The average CPM was used for Kd calculation using the New Ligand (Genentech, South San Francisco, Calif.) program.

[3] = target: T1, human FcRH5 expressed on stably …; test: FACS (0.1, 1.0, 10 ug/mL ADC) on OPM2 cells stably expressing human FcRH5
Experimental: For FACS analysis of FcRH5 antibody drug conjugates (see Example 2), FcRH5 ADCs were added in increasing concentrations (0.1, 1.0, and 10 μg/mL) to 10⁶ OPM2 cells transfected with and stably expressing human FcRH5 or SVT2 cells transfected with and stably expressing cynomolgus FcRH5 in a 100 μL reaction volume. Samples were then incubated 1 hr at […] in FACS buffer (PBS, 0.5% BSA, 0.1% sodium azide) to inhibit interalization. After washing, cells were resuspended in FACS buffer and incubated 30 min at room temperature with 20 μL mouse anti-human IgG conjugated to phycoerythrin (Ms anti-Human-PE) secondary antibody in a 100 μL reaction volume. After washing, cells were fixed in 200 μL 2% paraformaldehyde/PBS and flow cytometery performed. The same procedure was used for HuIgG, however, at only the highest concentration (10 μg/mL). The HuIgG was used as an isotype control to set baseline PMT per cell line. Flow cytomery was performed on a BD FACSCalibur® and geometric mean fluorescence intensity was recorded for each sample. Recorded data was analyzed using FlowJo v8.4.5 software (see FIGS. 20-25).

[4] = target: T1, human FcRH5 expressed on stably …; test: Scatchard analysis, 0.5 nM 125I-labelled antibody competed with the same unlabelled antibody (50 to 0.02 nM), OPM2.huFcRH5 cells, 4 h at 4 C
Experimental: as §1, §2

| Binder | Kd [2] | binding result [3] | further results |
| --- | --- | --- | --- |
| B1 | 2.74 nM |  | Kd [1]: 0.44 nM |
| B2 |  | binds |  |
| B3 | 1.57 nM |  | Kd [4]: 0.85 nM |
| B4 |  | binds |  |
| B5 | 0.98 nM |  |  |
| B6 | 3.04 nM |  | Kd [4]: 1.44 nM |
| B7 |  | binds |  |
| B8 | 3.12 nM |  |  |
| B9 |  | binds |  |
| B10 | 2.63 nM |  |  |
